Assay results as given in PMC9482650, “Quantitative fragmentomics allow affinity mapping of interactomes” (Nature Communications, 2022).

How the values were obtained:
Assay in all cases: holdup assay
Design in all cases: key: below the threshold = too weak to quantify, mostly under pKd 3.1 to 4
[1] = target: T1, CARD11, Q9BXL7
T1 sequence (Q9BXL7 662-765, limits assumed, looked up): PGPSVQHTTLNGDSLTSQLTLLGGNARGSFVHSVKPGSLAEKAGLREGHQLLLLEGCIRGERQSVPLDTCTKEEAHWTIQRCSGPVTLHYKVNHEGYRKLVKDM

[2] = target: T2, DFNB31_2, Q9P202
T2 sequence (Q9P202 274-371, limits assumed, looked up): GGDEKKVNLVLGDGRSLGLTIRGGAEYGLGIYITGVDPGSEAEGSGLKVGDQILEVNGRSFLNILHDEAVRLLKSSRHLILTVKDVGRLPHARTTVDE

[3] = target: DLG1_1, Q12959
[4] = target: T3, FRMPD1, Q5SYB0
T3 sequence (Q5SYB0 52-145, limits assumed, looked up): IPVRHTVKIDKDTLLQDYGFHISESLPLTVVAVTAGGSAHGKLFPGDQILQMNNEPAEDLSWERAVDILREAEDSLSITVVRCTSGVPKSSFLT

[5] = target: FRMPD2_3, Q68DX3
Sequence of FRMPD2_3, Q68DX3 (Q68DX3 1073-1166): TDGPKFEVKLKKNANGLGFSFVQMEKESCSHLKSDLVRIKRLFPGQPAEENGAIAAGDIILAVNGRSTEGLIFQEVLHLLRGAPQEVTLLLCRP

[6] = target: GORASP1, Q9BQQ3
Sequence of GORASP1, Q9BQQ3 (Q9BQQ3 1-208): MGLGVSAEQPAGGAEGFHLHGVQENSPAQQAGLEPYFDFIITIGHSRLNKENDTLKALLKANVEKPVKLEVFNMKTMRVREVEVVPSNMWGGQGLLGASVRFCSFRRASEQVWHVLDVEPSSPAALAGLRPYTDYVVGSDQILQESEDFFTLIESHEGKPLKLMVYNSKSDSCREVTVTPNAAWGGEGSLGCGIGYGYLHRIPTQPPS

[7] = target: GRASP, Q7Z6J2
Sequence of GRASP, Q7Z6J2 (Q7Z6J2 96-193): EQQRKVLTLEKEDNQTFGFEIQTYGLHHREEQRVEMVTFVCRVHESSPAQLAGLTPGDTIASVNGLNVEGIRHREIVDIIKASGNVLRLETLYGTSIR

[8] = target: GRIP2_3, Q9C0E4
Sequence of GRIP2_3, Q9C0E4 (Q9C0E4 238-339): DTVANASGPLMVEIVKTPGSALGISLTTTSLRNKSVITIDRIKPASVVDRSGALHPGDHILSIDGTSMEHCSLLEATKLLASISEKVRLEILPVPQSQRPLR

[9] = target: IL16_1, Q14005
Sequence of IL16_1, Q14005 (Q14005 210-306): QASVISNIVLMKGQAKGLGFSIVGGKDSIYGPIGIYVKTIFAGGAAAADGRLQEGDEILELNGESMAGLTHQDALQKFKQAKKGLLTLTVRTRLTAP

[10] = target: Inadl_2, Q8NI35
Sequence of Inadl_2, Q8NI35 (Q8NI35 238-335): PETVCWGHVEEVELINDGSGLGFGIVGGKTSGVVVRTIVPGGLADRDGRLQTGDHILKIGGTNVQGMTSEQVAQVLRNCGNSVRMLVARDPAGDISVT

[11] = target: LAP2, Q96RT1
Sequence of LAP2, Q96RT1 (Q96RT1 other isoform, or with tags, fused parts or gaps): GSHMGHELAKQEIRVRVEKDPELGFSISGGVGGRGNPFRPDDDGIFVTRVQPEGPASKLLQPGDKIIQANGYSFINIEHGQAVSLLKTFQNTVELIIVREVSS

[12] = target: T4, LIN7A, O14910
T4 sequence (O14910 103-200, limits assumed, looked up): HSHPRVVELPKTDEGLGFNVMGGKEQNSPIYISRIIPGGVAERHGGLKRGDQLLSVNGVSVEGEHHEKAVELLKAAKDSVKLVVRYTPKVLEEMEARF

[13] = target: LNX1_1, Q8TBB1
Sequence of LNX1_1, Q8TBB1 (Q8TBB1 261-371): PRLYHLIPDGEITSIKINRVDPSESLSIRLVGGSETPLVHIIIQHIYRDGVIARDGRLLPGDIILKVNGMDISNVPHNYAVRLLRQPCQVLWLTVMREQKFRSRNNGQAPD

[14] = target: MAGI1_2, Q96QZ7
Sequence of MAGI1_2, Q96QZ7 (Q96QZ7 456-580): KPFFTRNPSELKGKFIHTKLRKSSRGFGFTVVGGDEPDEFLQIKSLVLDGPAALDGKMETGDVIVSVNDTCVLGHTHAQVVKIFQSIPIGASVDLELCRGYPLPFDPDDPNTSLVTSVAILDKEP

[15] = target: MAGI2_6, Q86UL8
Sequence of MAGI2_6, Q86UL8 (Q86UL8 1141-1229): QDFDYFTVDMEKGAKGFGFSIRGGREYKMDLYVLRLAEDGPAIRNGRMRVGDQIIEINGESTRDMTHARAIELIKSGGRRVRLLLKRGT

[16] = target: MAGI3_2, Q5TCQ9
Sequence of MAGI3_2, Q5TCQ9 (Q5TCQ9 398-503): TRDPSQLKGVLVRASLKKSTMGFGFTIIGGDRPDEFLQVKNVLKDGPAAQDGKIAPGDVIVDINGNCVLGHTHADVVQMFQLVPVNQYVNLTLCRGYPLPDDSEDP

[17] = target: T5, MPP2, Q14168
T5 sequence (Q14168 180-250, limits assumed, looked up): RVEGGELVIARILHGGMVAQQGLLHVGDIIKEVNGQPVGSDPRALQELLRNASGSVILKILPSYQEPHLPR

[18] = target: T6, MPP7, Q5T2T1
T6 sequence (Q5T2T1 134-230, limits assumed, looked up): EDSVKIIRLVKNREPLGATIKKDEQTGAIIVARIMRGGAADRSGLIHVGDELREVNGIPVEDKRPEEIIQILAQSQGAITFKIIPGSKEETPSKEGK

[19] = target: NHERF4_2, Q86UT5
Sequence of NHERF4_2, Q86UT5 (Q86UT5 220-308): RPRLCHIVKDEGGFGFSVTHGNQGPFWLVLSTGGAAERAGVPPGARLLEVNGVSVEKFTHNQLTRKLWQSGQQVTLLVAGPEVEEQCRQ

[20] = target: T7, PCLO, Q9Y6V0
T7 sequence (Q9Y6V0 4491-4600, limits assumed, looked up): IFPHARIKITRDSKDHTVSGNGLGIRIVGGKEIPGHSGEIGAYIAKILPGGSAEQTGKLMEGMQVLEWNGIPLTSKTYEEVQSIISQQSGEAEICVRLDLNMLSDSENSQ

[21] = target: PICK1, Q9NRD5
Sequence of PICK1, Q9NRD5 (Q9NRD5 17-115): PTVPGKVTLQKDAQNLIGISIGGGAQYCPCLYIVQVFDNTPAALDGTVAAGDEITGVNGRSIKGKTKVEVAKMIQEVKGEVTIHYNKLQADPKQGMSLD

[22] = target: T8, RADIL, Q96JH8
T8 sequence (Q96JH8 971-1071, limits assumed, looked up): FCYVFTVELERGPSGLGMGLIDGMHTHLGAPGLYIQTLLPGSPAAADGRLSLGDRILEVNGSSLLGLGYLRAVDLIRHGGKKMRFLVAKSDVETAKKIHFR

[23] = target: T9, RAPGEF6, Q8TEU7
T9 sequence (Q8TEU7 525-625, limits assumed, looked up): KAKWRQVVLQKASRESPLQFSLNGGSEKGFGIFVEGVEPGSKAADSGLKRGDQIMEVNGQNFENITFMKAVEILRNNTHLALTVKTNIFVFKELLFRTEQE

[24] = target: SCRIB_1, Q14160
Sequence of SCRIB_1, Q14160 (Q14160 718-814): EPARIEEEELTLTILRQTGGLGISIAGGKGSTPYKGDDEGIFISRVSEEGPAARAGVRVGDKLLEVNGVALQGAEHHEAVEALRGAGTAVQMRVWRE

[25] = target: T10, SNTG2, Q9NY99
T10 sequence (Q9NY99 68-166, limits assumed, looked up): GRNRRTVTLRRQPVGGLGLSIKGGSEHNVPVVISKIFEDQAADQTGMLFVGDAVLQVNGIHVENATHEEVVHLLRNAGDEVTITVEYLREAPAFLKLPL

[26] = target: T11, SYNJ2BP, P57105
T11 sequence (P57105 8-110, limits assumed, looked up): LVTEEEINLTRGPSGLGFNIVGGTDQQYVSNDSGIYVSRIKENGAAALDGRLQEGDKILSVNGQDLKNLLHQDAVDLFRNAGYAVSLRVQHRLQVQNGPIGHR

[27] = target: TJP2_1, Q9UDY2
Sequence of TJP2_1, Q9UDY2 (Q9UDY2 24-128): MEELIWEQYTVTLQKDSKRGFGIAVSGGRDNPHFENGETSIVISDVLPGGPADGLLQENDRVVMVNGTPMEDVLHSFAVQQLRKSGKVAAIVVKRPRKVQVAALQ

[28] = plain residues with an end cap or a label only (N-terminal biotin on a linker: ahx)
[29] = plain residues with an end cap or a label only (N-terminal biotin on a linker: ttds)
[30] = plain residues with an end cap or a label only (N-terminal biotin on a linker: ado-ado)

B1: MTMR1, Q13613 (peptide)
chain: HSATSVHTSV
pKd [1, 28]: below the threshold | pKd [2, 28]: below the threshold | pKd [3, 28]: 4.26 | pKd [4, 28]: below the threshold | pKd [5, 28]: below the threshold | pKd [6, 28]: below the threshold | pKd [7, 28]: 4 | pKd [8, 28]: below the threshold | pKd [9, 28]: below the threshold | pKd [10, 28]: below the threshold | pKd [11, 28]: below the threshold | pKd [12, 28]: below the threshold | pKd [13, 28]: below the threshold | pKd [14, 28]: 3.52 | pKd [15, 28]: 3.66 | pKd [16, 28]: 3.59 | pKd [17, 28]: below the threshold | pKd [18, 28]: below the threshold | pKd [19, 28]: below the threshold | pKd [20, 28]: below the threshold | pKd [21, 28]: below the threshold | pKd [22, 28]: below the threshold | pKd [23, 28]: below the threshold | pKd [24, 28]: 3.79 | pKd [25, 28]: 3.5 | pKd [26, 28]: 4.42 | pKd [27, 28]: below the threshold

B2: PODXL, O00592 (peptide)
chain: DLDEEEDTHL
pKd [1, 29]: below the threshold | pKd [2, 29]: below the threshold | pKd [3, 29]: 3.63 | pKd [4, 29]: below the threshold | pKd [5, 29]: below the threshold | pKd [6, 29]: below the threshold | pKd [7, 29]: below the threshold | pKd [8, 29]: below the threshold | pKd [9, 29]: below the threshold | pKd [10, 29]: below the threshold | pKd [11, 29]: below the threshold | pKd [12, 29]: below the threshold | pKd [13, 29]: below the threshold | pKd [14, 29]: below the threshold | pKd [15, 29]: below the threshold | pKd [16, 29]: below the threshold | pKd [17, 29]: below the threshold | pKd [18, 29]: below the threshold | pKd [19, 29]: below the threshold | pKd [20, 29]: below the threshold | pKd [21, 29]: below the threshold | pKd [22, 29]: below the threshold | pKd [23, 29]: 3.48 | pKd [24, 29]: 5.08 | pKd [25, 29]: below the threshold | pKd [26, 29]: below the threshold | pKd [27, 29]: below the threshold

B3: DGKI, O75912 (peptide)
chain: IGHEDLETAV
pKd [1, 30]: below the threshold | pKd [2, 30]: below the threshold | pKd [3, 30]: 4.51 | pKd [4, 30]: below the threshold | pKd [5, 30]: 3.56 | pKd [6, 30]: below the threshold | pKd [7, 30]: 3.57 | pKd [8, 30]: below the threshold | pKd [9, 30]: 4.26 | pKd [10, 30]: below the threshold | pKd [11, 30]: 4.56 | pKd [12, 30]: 4.07 | pKd [13, 30]: 3.58 | pKd [14, 30]: below the threshold | pKd [15, 30]: 4.59 | pKd [16, 30]: 4.56 | pKd [17, 30]: below the threshold | pKd [18, 30]: below the threshold | pKd [19, 30]: below the threshold | pKd [20, 30]: below the threshold | pKd [21, 30]: below the threshold | pKd [22, 30]: below the threshold | pKd [23, 30]: below the threshold | pKd [24, 30]: 4.49 | pKd [25, 30]: 4.8 | pKd [26, 30]: 5.25 | pKd [27, 30]: below the threshold

B4: MAPK12, P53778 (peptide)
chain: GARVSKETPL
pKd [1, 29]: below the threshold | pKd [2, 29]: below the threshold | pKd [3, 29]: 4.08 | pKd [4, 29]: below the threshold | pKd [5, 29]: below the threshold | pKd [6, 29]: below the threshold | pKd [7, 29]: 3.66 | pKd [8, 29]: below the threshold | pKd [9, 29]: below the threshold | pKd [10, 29]: below the threshold | pKd [11, 29]: below the threshold | pKd [12, 29]: below the threshold | pKd [13, 29]: below the threshold | pKd [14, 29]: 3.76 | pKd [15, 29]: 3.89 | pKd [16, 29]: 4.17 | pKd [17, 29]: below the threshold | pKd [18, 29]: below the threshold | pKd [19, 29]: below the threshold | pKd [20, 29]: below the threshold | pKd [21, 29]: below the threshold | pKd [22, 29]: below the threshold | pKd [23, 29]: below the threshold | pKd [24, 29]: 4.94 | pKd [25, 29]: 4.18 | pKd [26, 29]: 4.69 | pKd [27, 29]: below the threshold

B5: GDA, Q9Y2T3 (peptide)
chain: KQVVPFSSSV
pKd [1, 29]: below the threshold | pKd [2, 29]: below the threshold | pKd [3, 29]: 3.89 | pKd [4, 29]: below the threshold | pKd [5, 29]: below the threshold | pKd [6, 29]: below the threshold | pKd [7, 29]: 3.86 | pKd [8, 29]: below the threshold | pKd [9, 29]: 3.86 | pKd [10, 29]: below the threshold | pKd [11, 29]: 3.88 | pKd [12, 29]: below the threshold | pKd [13, 29]: 3.84 | pKd [14, 29]: below the threshold | pKd [15, 29]: 4.02 | pKd [16, 29]: 3.81 | pKd [17, 29]: below the threshold | pKd [18, 29]: below the threshold | pKd [19, 29]: below the threshold | pKd [20, 29]: below the threshold | pKd [21, 29]: below the threshold | pKd [22, 29]: 3.76 | pKd [23, 29]: below the threshold | pKd [24, 29]: 3.51 | pKd [25, 29]: below the threshold | pKd [26, 29]: 5 | pKd [27, 29]: below the threshold
